Here are results for 40 sequences from the nanobody polyreactivity screen of Harvey et al. (2022).

The nature of this data set: yeast display, Sf9 membrane polyspecificity reagent, FACS + sequencing; frameworks hold sequencing errors. In a few lines:
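In a synthetic yeast display library (Saccharomyces cerevisiae BJ5465), nanobody expression was induced with galactose for 36–48 hours. FACS gates were set low and high (top ~1%) using anti-HA fluorescence for expression and streptavidin fluorescence for binding of the Sf9 membrane reagent. Each polyreactivity label is drawn from the gate of origin.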
For the sequence “QVQLVESGGGLVQAGGSLRISCAPSGIIFEYYALGCSRQAPGKEREVVAAIFSGGSTYYADSVKGRFTISRDNAKNTVYLLMNSLKAEDNAVYYCAAEYLAWGQGTQVTVSS”, the “polyreactivity (PSR sort gate)” value is recorded as “high polyreactivity”. The entry for “QVQLVESGGGLVQAGGSLRISCAPSGLIFKYNAMGWYRQAPGKERDLVADINRSGGSTYYADSVKCRFTISRDNAKNTVYLQMNSLKPEDTEVYYCAAERDSLYWVLFGYWGQGTQVTVSS” is “low polyreactivity”; for “QVQLVESGGGLVQAGGSLRISCASSGSTFGYYAIGWYRQAPGKESELVAAIRRSGGRTYYADSVKGRFTISRDNAKNTVYLQLNSLKPEDTAVYYCAKDGYSRRNSQKTPYDYWGQGTQVTVSS” it is “low polyreactivity”. For “QVQLVESGGGLVQAGGSLRISCDASGSTFSRYTLGWYRQAPVKEREMVAAISYRGGSTYYADSVKGRFTISRDNAKNTVYLQMNSLKPEDSAVYYCNADVPRIPYPDMEYWGQGTQVTVSS”, the “polyreactivity (PSR sort gate)” value is on record as “low polyreactivity”. The result for “QVQLVESGGGLVQAGGSLRITCAASGSILFAKSMGWYRQAPGKERELVADIRGSGSTYYADSVKGRFTISRDNAKNTVYLQMNSLKPEDTAVYYCAKRHLISIPDYGRHEYYYWGQGTQVTVSS” reads “low polyreactivity”. The entry for “QVQLVESGGGLVQAGGSLRKSCAASGRIFGINAMGWSRQAPGNERELVAAITWGVGSTYYADSVKGRFTISRDNAKNTVYLQMNSLKPEDTAVYYCAKRRYYGYGGDYWGQGTQVTVSS” is “high polyreactivity”; for “QVQLVESGGGLVQAGGSLRKSCAASGRIFSANAIGWYRKAPGTEWELVAAITCSGGSTYYADSVKGRFTISRDTAKNTVYLQMHSLKPEETAVYYCAAESAAYGGGTSDAGYESDYWGQGTQVTVSS” it is “low polyreactivity”; for “QVQLVESGGGLVQAGGSLRLAVLPPDLPSTLNDRGWYRQAPGKESELVAAITSGGNTYYADSVKGRFTISRDNAKNTVYLQMNSLKPEDTAVYYCAATYYWAWGGVYHSEFDYWGQGTQVTLSS” it is “low polyreactivity”. The entry for “QVQLVESGGGLVQAGGSLRLCCAASGIIFQRNDMGWYRQAPGKERELVANIRDGGITYADSVKGRFTISRDNAKNTVYLQMNSLKPEDTAVYYCARDDTSPGYGDQSSIAAYYYWGQGTQVTVSS” is “low polyreactivity”; for “QVQLVESGGGLVQAGGSLRLICAASGFIFGDYTMGWYRPAPGKEREVVAAITWYGDSTYYADSVKGRFTISRDNAKNTVYLQMNTLKTEDTAVYYCNAVNDWYYAYYGVTSFRSYDYWGQGSQVTVSS” it is “low polyreactivity”. Consider “QVQLVESGGGLVQAGGSLRLICAASGFIFGGYGMGWYRQAPGKERELVAVITASGGSTYYADSVKGRFTISRDNAKNTVYLQMNSLKPEDTAVYYCAARVGRYGYSQYYYWGQGTQVTVSS”, for which the “polyreactivity (PSR sort gate)” value is listed as “high polyreactivity”. The result for “QVQLVESGGGLVQAGGSLRLICAASGFIFRRYDMGWYRQAPGKERELVATITASVGSTNYADSVKGRFTISRDNAKNTVYLQMNSLKPEDTAVYYCATDIIGAIRVWDHTRMDYWGQGTQVTVSS” reads “low polyreactivity”. Turning to “QVQLVESGGGLVQAGGSLRLICAASGFIFSSHAMGWYRQAPGKERELVAAISRSGGRTYYADSVKGRFTITRDNAKNTVYLQMNSLKPEDTAVYYCAAKRWWQYYWGQGTQVTVSS”, the “polyreactivity (PSR sort gate)” value was “high polyreactivity”. As for “QVQLVESGGGLVQAGGSLRLICAASGFIFTGYVMGWYRQEPGKERELVAAISSRGGSTYYADSVKGRFTISRDNAKNTVYLQMNSLKPEDTAVYYCAARYVYGSSYDYWGQGTQVTVSS”, the “polyreactivity (PSR sort gate)” value is “high polyreactivity”. The entry for “QVQLVESGGGLVQAGGSLRLICAASGFIFTYYGMGWYRQAPGKERELVAAITWSGASTYYADSVKGRFTISRDNAKNTVYLQMNSLKPEDTAVYYCNAGWDSGIVQSDETVYKYDYWGQGTQVTVSS” is “low polyreactivity”. On to “QVQLVESGGGLVQAGGSLRLICAASGFIYFFYAMGWSRQAPGKEMEFVAVITQSGGSTYYADSVKGRFTISRDNAKNTVYLQMNSLKPEDTAVYYFNADTVRYYPFFSVRYYYWGQGTQVTVSS”, for which the “polyreactivity (PSR sort gate)” value is on record as “low polyreactivity”. “QVQLVESGGGLVQAGGSLRLICAASGFIYHNAMGWYRQATGTERELVARITWSGGSTSYADSVKGRFTISRDNAKNTVYLQKNSLKPEDTAVYYCAARGVVYRYGASRGYWGQGTQVTVSS”: the “polyreactivity (PSR sort gate)” value is reported as “high polyreactivity”.

As for “QVQLVESGGGLVQAGGSLRLICAASGFNFVTNAMGWYRQAPGKERELVAAISRRGGSTYYADSVKGRFTISRDIAKNTVYLQMNSLKPEDTAVLYCAAVTLSAESGYYWGHGTQVTVSS”, the “polyreactivity (PSR sort gate)” value is reported as “high polyreactivity”. The entry for “QVQLVESGGGLVQAGGSLRLICAASGFSLYRNSMGWYRQAPGTERELVAAISSSGGRTYYADSVKGRFTISRDNAKNTVYLQMNSLKPEDTAVYYCAADFYRYGPQLGYWGQGTQVTVSS” is “high polyreactivity”. In the case of “QVQLVESGGGLVQAGGSLRLICAASGFTFFSYTMGWYRQAPGKERELVAAISKRGSRTYYADSVKGRFTISRDNAKNTVYLQMNSLKQEDTAVYYCAADSGPEVVHRREDYWGQGTQVTLSS”, the “polyreactivity (PSR sort gate)” value is listed as “high polyreactivity”. Consider “QVQLVESGGGLVQAGGSLRLICAASGFTFRTYAMGWYRQAPGKERELVAAINYSGGSTYYADSVKGRFTISRDNAKNTVYLQMNSVKPEDTAVYYCNKQRDVQVYVRYPMNYWGQGTQVTVSS”, for which the “polyreactivity (PSR sort gate)” value is “low polyreactivity”. The result for “QVQLVESGGGLVQAGGSLRLICAASGFTFTDYAMGWYRQAPGKERELVAVIDSGGSTYYADSVKGRFTISRDNAKNTVYLQMNSLKPEDTAVYYCAAYNGTAPSEDYLGQGTQVTVSS” reads “low polyreactivity”. Consider “QVQLVESGGGLVQAGGSLRLICAASGFTLDQYAMGWYRPAPGKERELVAVITSGGNTYYADSVKGRFTISRDNAKNTVYLQMNSLKPEDTAVYYCAKDVSDPFYDPFEYWGQGTQVTVSS”, for which the “polyreactivity (PSR sort gate)” value is on record as “low polyreactivity”.

Consider “QVQLVESGGGLVQAGGSLRLICAASGFTLDWYVMGWYRQAPGKERELVAAISSSGGRTYYADSVKGRFTISRDNEKNTVYLQMNSLKPEDPAVYYCAARNKYGGYPYGYDYWGQGTQVTVSS”, for which the “polyreactivity (PSR sort gate)” value is “high polyreactivity”. The result for “QVQLVESGGGLVQAGGSLRLICAASGFTLRHYAMGWSRQAPGKERELVAAITKSGSSTYYADSVKGRFTISRDNAKNTVYLQMNSLKPEDTAVYYCAKKTSYSYAFRYDYWGQGTQVTVSS” reads “high polyreactivity”. The result for “QVQLVESGGGLVQAGGSLRLICAASGGIFPTYDMVWYRQAPGKERELVAAIDRNGTSTTYSDSVKGRFTISRDNAKNTVYLQMNSLKPEDTEVYYCAAGYNDQTSAYDYWGHGTQVTVSS” reads “low polyreactivity”.

As to “QVQLVESGGGLVQAGGSLRLICAASGGIFWYYAMGWYRQAPGKERELVATISSGGSTKYADSVKGRFTISRDNAKNTVYLQMNSLKPEDTAVYYCNKVFPNLYIYVVRGLIEMDYWGQGTQVTVSS”, the “polyreactivity (PSR sort gate)” value is on record as “low polyreactivity”. “QVQLVESGGGLVQAGGSLRLICAASGGIIYWNAMGWYRQAPGKERELVATITRSGGSTYYADSVKGRFTISRDNAKNTVYLQMNSLKPEDTAVYYCAARSYYRFDYWGQGTQVTVSS”: the “polyreactivity (PSR sort gate)” value is recorded as “high polyreactivity”. The entry for “QVQLVESGGGLVQAGGSLRLICAASGGPFGYYTMGWYRQAPGKERELVAAISSGGGTDYADSVKGRFTISRDNAKNTVYLQMNSLKPEDTAVYYCNAKWLEWHYVFLPSYTMDYWGQGTQVTVSS” is “low polyreactivity”; for “QVQLVESGGGLVQAGGSLRLICAASGGTFGRNAMGWYRQAPGKERELVATITRRGGSTYYADSVKGRFTISRDNAKNTVYLQMNSLKPEDTAVYYCNALVTTTPRYDYWGQGTQVTVSS” it is “high polyreactivity”; for “QVQLVESGGGLVQAGGSLRLICAASGGTFNAYAMGWYRQAPGKERELVATISYSGGSTYYADSEKGRFTISRDNAKNTVYLQMNSLKPEDTAVYYCATDVYDSTPFRFDYWGQGTQVTVSS” it is “low polyreactivity”. In the case of “QVQLVESGGGLVQAGGSLRLICAASGIIFHFNDMGWYRQAPGKERELVAAIDSTGSTNYADSVKGRFTISRDNAKNTVYLQMNSLKPEDTAVYYCAVLNHRVDSVLTRYYYWGQGTQVTVSS”, the “polyreactivity (PSR sort gate)” value is given as “low polyreactivity”. The result for “QVQLVESGGGLVQAGGSLRLICAASGIIFRWYTMGWYRQAPGKERELVAAISTSTGSTYYADSVKGRFTISRDNAKNTVYLQMNSLKPEDTAVYYCAADYAYWNYESYYWGQGTQVTVSS” reads “high polyreactivity”. The entry for “QVQLVESGGGLVQAGGSLRLICAASGITFARNTRGWYRQAPGKERELVAAIDSGGNTYADSVKGRFTISRDNAKNTVYLQMNSLKPEDTAVYYCAVDGGEFSSYGYWGQGTQVTVSS” is “low polyreactivity”; for “QVQLVESGGGLVQAGGSLRLICAASGITFGCNAMGWYRQAPGKEREFVAAITFSDGSTRYADSVKGRFTISRDNAKNTVYLQMNSLKPEDTAVYYCAADTWSDKYDYWGQGTQVTVSS” it is “low polyreactivity”. The entry for “QVQLVESGGGLVQAGGSLRLICAASGITFWYYAMGWSRQEPGKERELVAAITRRGRTNYADSVKGRFTISRDNAKNTVYLQMNSLKPEVTAVYYCAVDLYSFSPRYYYWGQGTQVSVSS” is “low polyreactivity”; for “QVQLVESGGGLVQAGGSLRLICAASGITFYYYAMGWYRQAPGKERELVAAISTRSGSTYYADSVKGRFTISRDNAKNTVYLEMNSLKPEDTAVYYCAARYRSAGHRYDYWGQGTQVTVSS” it is “high polyreactivity”; for “QVQLVESGGGLVQAGGSLRLICAASGITIKRSAMGWYRQPPGKEREFVATISQSGTSTYYADSVKGLFTISRDNAKNTVYLQMNSLKPEDTAVYYCAADYIGYWYGYYSWGHGTQVTVSS” it is “low polyreactivity”. “QVQLVESGGGLVQAGGSLRLICAASGITLYRYAMGWYRQAPGKERELVADISSGGGTTYYADSVKGRFTISRDNAKNTVYLQMNSLKPEDTAVYYCAADYGFRYPLYDYWGQGTQVTVSS”: the “polyreactivity (PSR sort gate)” value was “low polyreactivity”. The result for “QVQLVESGGGLVQAGGSLRLICAASGLIFVRNVMGWYRQAPGKERELVAAINLSTGSTYYADSVKGRFTISRDNAKNTVYLQMNCLKPEDTAVYYCAAEYLYWDDLQDYEYWGQGTQVTVSS” reads “low polyreactivity”.
